This note sets out measurements from patent US20230348578A1, “CONFORMATION-SPECIFIC ANTIBODIES THAT BIND TAU PROTEIN AND USES THEREOF” (Beth Israel Deaconess Medical Center, Inc., priority 2020, published 2023).

Experiment [1] concerns the target cis pT231-tau (P-tau peptide, pure cis or cis-locked). Kind of experiment: Biacore assay of binding affinity of humanized cis mAb variants. An excerpt:
We next started to characterize and select lead humanized mAbs. We expressed and purified humanized mAb variants using a CHO expression system. We transfected over 45 plasmid DNA pairs of heavy and light chain cDNAs into CHO cells to express over 225 humanized cis mAb variants in various combinations. To evaluate the target binding specificity and affinity of our mouse mAbs, we established a simple and quantitative ELISA to screen the clones using a wild-type P-tau peptide and its pure cis or cis-locked, and pure trans counterparts and determined the binding affinity for selected clones using Biacore assays. We screened over 200 humanized cis mAb variants. […] Furthermore, one-tenth of humanized cis mAb variants were also able to recognize cis P-tau in human AD and TBI brains based on immunostaining analysis.
(§1) The binding affinity of selected humanized antibody clones was determined by Biacore assay using a wild-type P-tau peptide and its pure cis or cis-locked, and pure trans counterparts. The […] of the selected humanized cis mAb variants was determined by assessing their ability to eliminate cis P-tau in stressed neurons in cell cultures. Functional restoration of selected clones was determined by their ability to restore risk-taking behavior after 3-hit or 7-hit repetitive TBI in mice, as assayed by elevated plus maze.

Experiment [2] deals with mice (C57/BL6) after 3-hit repetitive TBI. Kind of experiment: 3-hit repetitive mild TBI in mice, elevated plus maze. Type of experiment: in vivo. As to conditions: risk-taking behavior, HT13 chimera control = 1.0. The method, then:
as §1
(§2) An initial sign of brain dysfunction following traumatic brain injury (TBI) is an increase in risk-taking behavior. To determine the therapeutic effect of the herein described cis pT231-tau monoclonal antibodies in restoring brain function 11-week old mice (C57/BL6) mice were subjected to elevated plus maze behavioral assays designed to evaluate risk-taking behavior following repetitive mild TBIs. The behavioral assays were performed as previously described in Walf, Nature Protocols 2(2): 322-328, 2007 (FIG. 7). […] All other mice sustained mild TBI (rmTB) either three times, once a day for three consecutive days, or seven times once a day for five consecutive days and two consecutive times on days 8 and 9. In the 3-hit TBI experiment (FIG. 8A), nine groups of mice received three doses (250 ug/mouse) via intraperitoneal injection of either IgG control (n=10 mice) or one of the following humanized cis pT231-tau monoclonal antibody variants C113 (n=5 mice), HT1 (n=10 mice), HT2 (n=10), HT3 (n=10), HT8 (n=5), HT10 (n=10), HT13 (n=15), HT18 (n=4). Treatment with IgG or humanized cis-pT231-tau monoclonal antibody was administered on Days 1, 2 and 7. Behavioral evaluation was performed on Day 13. In the 7-hit TBI experiment (FIG. 8B), one group sustained TBI only (n=10 mice). The other groups received 8 doses (250 ug/mouse) via intraperitoneal injection of either IgG control (n=10 mice) or one of the following humanized cis pT231-tau monoclonal antibody variants C113 (n=10 mice), HT2 (n=10), HT3 (n=10), HT8 (n=10), HT10 (n=10), HT13 (n=10), HT18/HC2 (n=10). Treatment with IgG or humanized cis-pT231-tau monoclonal antibody was administered on Days 1, 2, 3, 5, 8, 10, 13 and 20. Behavioral evaluation was performed on Day 27. The elevated plus maze was used to assess anxiety/risk-taking behavior and carried out as described in Kondo et al, Nature 523, 431-436, 2015. Briefly, the elevated plus maze consists of two white open arms (30×5 cm) and two white closed arms of the same size with 15-cm-high walls, extended out opposite from each other from a central platform (decision zone) to create a plus shape. The entire apparatus is raised 38 cm above the floor (Lafayette Instruments). Mice are placed on the center platform of the maze, facing a closed arm, and allowed to explore the apparatus for 5 min. The maze is cleaned between subjects with a weak ethanol solution and dried. A computer-assisted video tracking system (Noldus Ethovision) recorded the total time spent in the center platform (decision zone), and the two closed or ‘safe’ arms and the two open or ‘aversive’ arms. Mice with lower levels of anxiety/risk-taking behavior spend less time in the open arms.

Experiment [3] deals with mice (C57/BL6) after 7-hit repetitive TBI. The experiment in a line: 7-hit repetitive mild TBI in mice, elevated plus maze. The class given is in vivo. As to conditions: risk-taking behavior, HT13 chimera control = 1.0. The method, then: as §1, §2
Experiment [4] concerns the target T1, cis P-tau (Homo sapiens, UniProt P10636). Kind of experiment: Elimination of cis P-tau in cultured neurons stressed by hypoxia. Type of experiment: cell-based. Details: endogenous in cells. As to conditions: 2.5 μg/ml, 5 μg/ml and 10 μg/ml. The method, then: as §1
Cultured neurons were subjected to neuron stress by hypoxia in the presence or absence of different concentration of humanized antibody variants, followed by immunoblotting analysis to analyze cis P-tau levels in the stressed neurons, the results of which are provided in FIGS. 2-4. FIG. 2 is an immunostaining image showing the ability of humanized cis pT231-tau monoclonal antibody variants to eliminate cis P-tau in neurons under hypoxic conditions. Cis P-tau levels are reported in red and blue reports nuclear staining (Hoechst) to represent all neurons in the experiment. […] Cis P-tau levels are reported in red and blue reports nuclear staining (Hoechst) to represent all neurons in the experiment. […] IgG is a negative control. The cis-pTau monoclonal antibody C113 serves as a positive control.

Experiment [5] deals with BCAS (bilateral common carotid artery stenosis) mice. Kind of experiment: 3 month treatment of BCAS mice with humanized cis mAbs (Y maze, NOR, Barnes maze). The class given is in vivo. Here is the method: BCAS mice were treated with novel humanized cis mAbs (HT10 and HT18), murine cis mAb C113 (as described in, e.g., U.S. Pat. No. 9,688,747, positive control), mouse-human chimeric HT13 (positive control), or IgG (negative control). Behavioral changes were assay by Y-maze and novel object recognition (NOR) at 1 month after BCAS (FIG. 92A); by Y-maze and NOR at 3 months after BCAS (FIG. 92B); and by Barnes maze at 3 months after BCAS (FIG. 92C). *, p<0.05; **, p<0.01; ***, p<0.001; ****, p<0.0001.
As described above in Examples 1-4, we developed 225 humanized cis P-tau mAb variants and identified 10 top fully humanized cis mAb variants (HT1-4, HT6-10 and HT18) with the expected specificity and potency. […] In this experiment, we performed a 3 month treatment of BCAS (bilateral common carotid artery stenosis) mice with two humanized cis mAb variants, HT10 and HT18, along with murine cis mAb C113 (as described in, e.g., U.S. Pat. No. 9,688,747) and mouse-human chimeric HT13 as positive controls.

Experiment [6] has as its target T1, cis P-tau. Kind of experiment: Immunoblotting of CSF of live TBI patients. Type of experiment: binding. On the set-up: The recognition of cis P-tau in the CSF of live TBI patients; from tissue; host or cells: cerebrospinal fluid of live traumatic brain injury patients. As to conditions: relative to control CSF samples. The source says: CSF pT231-tau is an early biomarker of traumatic brain injury (TBI). The recognition of cis P-tau in the CSF of live TBI patients by the humanized cis pT231-tau monoclonal antibody variants evaluated immunoblotting analyses using different humanized antibody variants.

Setting [7] is: 3 months after BCAS surgery, Barnes maze.

T1 sequence (P10636 1-441 isoform P10636-8): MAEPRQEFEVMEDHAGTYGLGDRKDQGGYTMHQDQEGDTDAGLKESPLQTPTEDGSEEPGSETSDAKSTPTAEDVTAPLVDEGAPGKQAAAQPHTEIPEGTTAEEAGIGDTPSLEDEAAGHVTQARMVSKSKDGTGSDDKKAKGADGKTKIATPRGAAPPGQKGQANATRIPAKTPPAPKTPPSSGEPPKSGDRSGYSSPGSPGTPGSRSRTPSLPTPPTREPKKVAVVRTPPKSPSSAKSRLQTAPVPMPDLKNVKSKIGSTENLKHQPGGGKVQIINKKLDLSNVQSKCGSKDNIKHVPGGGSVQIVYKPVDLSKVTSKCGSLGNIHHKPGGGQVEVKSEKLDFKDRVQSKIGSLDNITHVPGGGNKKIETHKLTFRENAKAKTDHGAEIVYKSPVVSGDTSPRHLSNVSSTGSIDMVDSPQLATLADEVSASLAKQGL

B1: HT2: humanized cis-pThr231-tau mAb; heavy chain variable domain SEQ ID NO: 26, light chain variable domain SEQ ID NO: 16 (antibody, V domains shown)
VH: QVQLVQSGAEVKKPGASVKMSCKASGYTFTSYWIHWVKQRPGQGLEWIGVIDPSDSYTRYNQKFKGRATLTVDTSASTAYMELSSLRSEDTAVYYCTTWEVDYWGQGTLVTVSS
VL: DVVMTQSPLSLPVTLGQPASISCRSSQSLVHSDGNTYLHWYLQKPGQSPQLLIYKVSNRFSGVPDRFSGSGSGTDFTLKISRVEAEDVGVYFCSQSTHVPWTFGGGTKVEIK
B1: in experiment [1], the Kd was determined as 1.62 nM. Further, in experiment [2], the “Functional restoration 3-hit TBI” value is on record as 1.4. In addition, in experiment [3], the “Functional restoration 7-hit TBI” value came out at 1.7. In addition, in the experiment with cis P-tau [4], the “elimination of cis P-tau in neurons under hypoxic conditions (images)” value (from here on “elimination of cis P-tau in neurons”) is on record as “elimination of cis P-tau” and the “rank in cis P-tau elimination assay (FIG. 4)” value is on record as “top four performing variants”.

B2: HT10: humanized cis-pThr231-tau mAb; heavy chain variable domain SEQ ID NO: 26, light chain variable domain SEQ ID NO: 19 (antibody, V domains shown)
VH: QVQLVQSGAEVKKPGASVKMSCKASGYTFTSYWIHWVKQRPGQGLEWIGVIDPSDSYTRYNQKFKGRATLTVDTSASTAYMELSSLRSEDTAVYYCTTWEVDYWGQGTLVTVSS
VL: DVVMTQSPLSLPVTLGQPASISCRSSQSLVHSDGNTYLHWYLQKPGQSPQLLIYKVSNRFSGVPDRFSGSGSGTDFTLKISRVEAEDVGVYYCSQSTHVPWTFGGGTKVEIK
In the case of B2, the Kd in experiment [1] came out at 1.77 nM. Moreover, the “Functional restoration 3-hit TBI” value in experiment [2] was found to be 1.2. Besides, in experiment [3], the “Functional restoration 7-hit TBI” value is 1.3. Also, in experiment [5] (1 month after BCAS surgery), the VCID-like behavioral changes entry was “effective in preventing VCID-like behavioral changes”. For the same molecule, the VCID-like behavioral changes entry in experiment [5] (setting [7]) is listed as “effective in preventing VCID-like behavioral changes”. Further, in the experiment with cis P-tau [4], the “elimination of cis P-tau in neurons” value was “elimination of cis P-tau” and the “rank in cis P-tau elimination assay (FIG. 4)” value is “top four performing variants”. For the same molecule, the “detection of cis P-tau in CSF of live TBI patients” value (from here on “detection of cis P-tau”) in the experiment with cis P-tau [6] was “robust detection of cis P-tau as early as three days after TBI”.

B3: HT3: humanized cis-pThr231-tau mAb; heavy chain variable domain SEQ ID NO: 27, light chain variable domain SEQ ID NO: 16 (antibody, V domains shown)
VH: QVQLVQSGAEVKKPGASVKVSCKASGYTFTSYWIHWVRQRPGQGLEWIGVIDPSDSYTRYNQKFKGRVTLTVDTSASTAYMELSSLRSEDTAVYYCTTWEVDYWGQGTLVTVSS
VL: DVVMTQSPLSLPVTLGQPASISCRSSQSLVHSDGNTYLHWYLQKPGQSPQLLIYKVSNRFSGVPDRFSGSGSGTDFTLKISRVEAEDVGVYFCSQSTHVPWTFGGGTKVEIK
Turning to B3, the dissociation constant (Kd) in experiment [1] turned out to be 3.51 nM. In addition, the “Functional restoration 3-hit TBI” value in experiment [2] stood at 1.7. Moreover, in experiment [3], the “Functional restoration 7-hit TBI” value was 2.0. The “elimination of cis P-tau in neurons” value in the experiment with cis P-tau [4] is “elimination of cis P-tau”.

B4: HT18: humanized cis-pThr231-tau mAb; heavy chain variable domain SEQ ID NO: 29, light chain variable domain SEQ ID NO: 20 (antibody, V domains shown)
VH: QVQLVQSGAEVKKPGSSVKVSCKASGYTFTSYWIHWVRQAPGQGLEWMGVIDPSDSYTRYNQKFKGRVTITRDTSMSTAYTELSSLRSEDTAVYYCTTWEVDYWGQGTLVTVSS
VL: DIQMTQSPSTLSASVGDRVTITCRSSQSLVHSDGNTYLHWYQQKPGKAPKLLIYKVSNRFSGVPSRFSGSGSGTEFTLTISSLQPDDFATYYCSQSTHVPWTFGQGTKLEIK
Consider B4, for which the Kd in experiment [1] stood at 1.91 nM. Besides, the “Functional restoration 3-hit TBI” value in experiment [2] was determined as 1.0. Moreover, in experiment [3], the “Functional restoration 7-hit TBI” value came to 1.1. Besides, in experiment [5] (1 month after BCAS surgery), the VCID-like behavioral changes result is recorded as “effective in preventing VCID-like behavioral changes”. The VCID-like behavioral changes result in experiment [5] (setting [7]) is listed as “effective in preventing VCID-like behavioral changes”. Moreover, in the experiment with cis P-tau [4], the “elimination of cis P-tau in neurons” value is “elimination of cis P-tau” and the “rank in cis P-tau elimination assay (FIG. 4)” value is “top four performing variants”. Besides, the “detection of cis P-tau” value with cis P-tau [6] was “robust detection of cis P-tau as early as three days after TBI”.

B5: HT8: humanized cis-pThr231-tau mAb; heavy chain variable domain SEQ ID NO: 28, light chain variable domain SEQ ID NO: 18 (antibody, V domains shown)
VH: QVQLVQSGAEVKKPGASVKVSCKASGYTFTSYWIHWVRQRPGQGLEWIGVIDPSDSYTRYNQKFKGRVTITRDTSASTAYMELSSLRSEDTAVYYCTTWEVDYWGQGTLVTVSS
VL: DVVMTQSPLSLPVTLGQPASISCRSSQSLVHSDGNTYLHWYLQKPGQSPQLLIYKVSNRDSGVPDRFSGSGSGTDFTLKISRVEAEDVGVYFCSQSTHVPWTFGGGTKVEIK
Take B5: the Kd in experiment [1] came out at 7.68 nM. Also, the “Functional restoration 7-hit TBI” value in experiment [3] is on record as 1.4. For the same molecule, in the experiment with cis P-tau [4], the “elimination of cis P-tau in neurons” value is reported as “elimination of cis P-tau” and the “rank in cis P-tau elimination assay (FIG. 4)” value is “top four performing variants”. In the experiment with cis P-tau [6], the “detection of cis P-tau” value is “robust detection of cis P-tau as early as three days after TBI”.
